Data published in patent US20250313619A1, “RISANKIZUMAB COMPOSITIONS” (ABBVIE INC., priority 0001, published 2025).

Columns and labels:
[1] = biological target: T1, IL-23 (Homo sapiens, UniProt Q9NPF7); assay: Inhibition of IL-23 stimulated IL-17 production; format: cell-based; settings: read-out: inhibition of IL-23 stimulated IL-17 production, inhibitory concentration (IC) 50
T1 sequence (Q9NPF7 20-189): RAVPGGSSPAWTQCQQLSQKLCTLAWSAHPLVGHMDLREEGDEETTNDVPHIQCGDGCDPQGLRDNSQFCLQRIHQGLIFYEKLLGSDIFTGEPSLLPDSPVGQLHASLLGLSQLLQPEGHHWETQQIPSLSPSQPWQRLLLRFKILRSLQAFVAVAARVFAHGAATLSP
T1 sequence (P29460 23-328 partner): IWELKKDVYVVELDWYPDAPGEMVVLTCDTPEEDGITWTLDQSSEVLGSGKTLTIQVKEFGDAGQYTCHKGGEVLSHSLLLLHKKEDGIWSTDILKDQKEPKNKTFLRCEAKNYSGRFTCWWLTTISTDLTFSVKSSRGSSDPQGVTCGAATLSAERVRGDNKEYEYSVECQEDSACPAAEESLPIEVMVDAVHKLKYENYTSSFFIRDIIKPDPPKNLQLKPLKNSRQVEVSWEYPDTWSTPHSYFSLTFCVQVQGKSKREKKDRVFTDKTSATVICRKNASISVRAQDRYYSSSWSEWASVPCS

[2] = Hitchhiker protein spiking study, PS20-CAD subspecies method; format: biochemical; settings: for activity to PS20 degradation: DP3 and DP4 materials spiked with enzyme (summary); for PS20 degradation: ~30 hours incubation at 25° C.
From the text: PS20-CAD subspecies method was used. This method was originally developed to qualitatively determine subspecies composition and to quantify the PS20 subspecies relative to a PS20 manufacturing standard. The HPLC system used in this study was an Agilent 1260 II infinity HPLC equipped with a quaternary pump, mobile phase degassing unit, refrigerated auto sampler, temperature controlled column compartment, and a Thermo Scientific charged aerosol detector (CAD). Data was collected by Waters Empower acquisition system. Methods for detecting PS20 using Charged Aerosol Detector (CAD) are also described in Example 10.
Since the system takes 70 minutes to finish each injection (labeled as “injection” in Table 19), repeated injections measured the degradation patterns (profiles) at different incubation times. All samples were kept in a 25° C. autosampler during the entire test.
PS20-CAD subspecies method described above was used.
The solution was mixed and tested. All samples were studied at 25° C.
The solution was mixed and tested. All samples were studied at 25° C. […] More information can be found in Table 21A.
The solution was mixed and tested. More information regarding the study design can be found in Table 21A.
The solution was mixed and tested. More information regarding the study design can be found in Table 21B below.
The solution was mixed and tested. More information regarding the study design can be found in Table 21B.

Molecule	activity to PS20 degradation [2]	PS20 degradation ([2]; DP3 spiked with 5 μg/mL enzyme)	further results
ustekinumab: comparator in the same IL-23 stimulated IL-17 production system [reference compound]	–	–	IC50 [1]: 0.167 nM
PLA2G7: Recombinant human PLA2G7/PAF-AH/LP-PLA2 protein (5106-PL-010, Bio-techne) (protein, UniProt Q13093 22-441, looked up) Platelet-activating factor …: FDWQYINPVAHMKSSAWVNKIQVLMAAASFGQTKIPRGNGPYSVGCTDLMFDHTNKGTFLRLYYPSQDNDRLDTLWIPNKEYFWGLSKFLGTHWLMGNILRLLFGSMTTPANWNSPLRPGEKYPLVVFSHGLGAFRTLYSAIGIDLASHGFIVAAVEHRDRSASATYYFKDQSAAEIGDKSWLYLRTLKQEEETHIRNEQVRQRAKECSQALSLILDIDHGKPVKNALDLKFDMEQLKDSIDREKIAVIGHSFGGATVIQTLSEDQRFRCGIALDAWMFPLGDEVYSRIPQPLFFINSEYFQYPANIIKMKKCYSPDKERKMITIRGSVHQNFADFTFATGKIIGHMLKLKGDIDSNVAIDLSNKASLAFLQKHLGLHKDFDQWDCLIEGDDENLIPGTNINTTNQHIMLQNSSGIEKYN	moderate activities	caused PS20 degradation with a relatively high activity	PS20 degradation pattern (profile) versus pattern observed in DP2 materials ([2]; DP3 spiked with 5 μg/mL enzyme, 25° C.): very different
PLA2G15: hitchhiker protein enzyme spiked into DP3/DP4 material (protein) VQRHPPVVLVPGDLGNQLEAKLDKPKVVHYLCSKRTDSYFTLWLNLELLLPVIIDCWIDNIRLVYNRTSRATQFPDGVDVRVPGFGETFSLEFLDPSKRTVGSYFHTMVESLVGWGYTRGEDLRGAPYDWRRAPNENGPYFLALREMIEEMYQMYGGPVVLVAHSMGNMYTLYFLQRQPQAWKDKYIHAFISLGAPWGGVAKTLRVLASGDNNRIPVIGPLKIREQQRSAVSTSWLLPYNHTWSHDKVFVHTPTTNYTLRDYHQFFQDIRFEDGWFMRQDTEGLVEAMMPPGVELHCLYGTGVPTPDSFYYESFPDRDPKICFGDGDGTVNLESVLQCQAWQSRQEHKVSLQELPGSEHIEMLANATTLAYLKRVLFEP	–	–	PS20 degradation pattern (profile) versus pattern observed in DP2 materials ([2]; DP3 spiked with 1 μg/mL PLA2G15, 25° C.): matches; PS20 degradation rate versus spiking level ([2]; DP4 spiked with 0.01875-0.6 ng/mg PLA2G15, 25° C.): concentration dependent PS20 degradation rates were observed
PRDX6: Recombinant human Peroxiredoxin 6 protein (ab87631, Abcam) (protein, UniProt P30041 2-224, looked up) Peroxiredoxin-6: PGGLLLGDVAPNFEANTTVGRIRFHDFLGDSWGILFSHPRDFTPVCTTELGRAAKLAPEFAKRNVKLIALSIDSVEDHLAWSKDINAYNCEEPTEKLPFPIIDDRNRELAILLGMLDPAEKDEKGMPVTARVVFVFGPDKKLKLSILYPATTGRNFDEILRVVISLQLTAEKRVATPVDWKDGDSVMVLPTIPEEEAKKLFPKGVFTKELPSGKKYLRYTPQP	very low activities	no detectable PS20 degradation	–
